From publication PMC4954698

Assays:
[1] = molecular target: Glutamate decarboxylase (GAD) from Escherichia coli K12, produced in media supplemented with pyridoxine hydrochloride (GAD-V) (E. coli str. K12 substr. MG1655) (UniProt P69910); experiment: SEC; Superdex 200 10/300GL, 20 mM citric acid-Na2HPO4 buffer pH 6.5 with 0.15 mM PLP, 0.4 mL/min, calibrated with molecular weight standards; native molecular weight about 324 kDa
[2] = molecular target: Glutamate decarboxylase (GAD) from Escherichia coli K12, produced without pyridoxine hydrochloride supplementation (GAD-C) (E. coli str. K12 substr. MG1655) (UniProt P69910); experiment: as above

Substance | stoichiometry N [1] | stoichiometry N [2]
Glutamate decarboxylase (GAD) from Escherichia coli K12, produced in media supplemented with pyridoxine hydrochloride (GAD-V) (from UniProt P69910 1-466) (enzyme) | 6 | 
Glutamate decarboxylase (GAD) from Escherichia coli K12, produced without pyridoxine hydrochloride supplementation (GAD-C) (from UniProt P69910 1-466) (enzyme) |  | 6
